Test results from article PMC12581835, “A kinetic ruler controls mRNA poly(A) tail length”.

Legend:
[1] = biological target: Nab2-FRB (S. cerevisiae | not stated)
SII-Nab2 [2] = biological target: T1, SII-Nab2 (Saccharomyces cerevisiae, UniProt P32505 1-525); assay: switchSENSE; kon 2.05e6 +/- 0.14e6 M-1 s-1; Kd only in Fig 2E table; switchSENSE: 12.5 mM HEPES-KOH pH 8.0, 75 mM KOAc, 1 mM Mg(OAc)2, 0.025 mM EDTA, 25 C; EMSA: polyadenylation buffer + 5% glycerol, 10 nM RNA, 30 C 1.5 h, native PAGE pH 6.4 at 4 C; conditions: protein: recombinant; tags: N-terminal SII; label: red dye on NL-B48; chip-tethered; 68 bp dsDNA (nicked) with 3' RNA overhang 60 nt
T1 sequence: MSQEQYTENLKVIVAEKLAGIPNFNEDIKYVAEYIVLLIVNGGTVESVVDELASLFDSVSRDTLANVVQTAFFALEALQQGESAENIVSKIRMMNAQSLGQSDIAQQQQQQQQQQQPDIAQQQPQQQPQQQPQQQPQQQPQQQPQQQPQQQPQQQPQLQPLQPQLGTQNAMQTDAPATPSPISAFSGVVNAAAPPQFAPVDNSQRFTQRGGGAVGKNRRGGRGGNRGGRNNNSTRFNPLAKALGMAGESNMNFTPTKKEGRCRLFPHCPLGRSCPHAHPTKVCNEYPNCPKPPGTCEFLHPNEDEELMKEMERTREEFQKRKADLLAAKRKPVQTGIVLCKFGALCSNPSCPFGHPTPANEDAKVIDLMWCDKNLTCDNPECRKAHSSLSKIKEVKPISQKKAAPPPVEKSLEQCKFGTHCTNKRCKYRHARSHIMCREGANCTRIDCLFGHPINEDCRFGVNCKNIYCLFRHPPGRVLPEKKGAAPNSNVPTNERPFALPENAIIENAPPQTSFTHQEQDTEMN

SII-Nab2 [3] = biological target: T1, SII-Nab2; assay: switchSENSE; kon 1.2e6 +/- 0.17e6 M-1 s-1; Kd only in Fig 2E table; switchSENSE: 12.5 mM HEPES-KOH pH 8.0, 75 mM KOAc, 1 mM Mg(OAc)2, 0.025 mM EDTA, 25 C; EMSA: polyadenylation buffer + 5% glycerol, 10 nM RNA, 30 C 1.5 h, native PAGE pH 6.4 at 4 C; conditions: protein: recombinant; tags: N-terminal SII; label: red dye on NL-B48; chip-tethered; 68 bp dsDNA (nicked) with 3' RNA overhang 30 nt
Nab2-6xHis [4] = biological target: T2, Nab2-6xHis (Saccharomyces cerevisiae, UniProt P32505 1-525); assay: SEC-MALS; bimodal peak; one Nab2 with 1-3 A30; dimer less stable; switchSENSE: 12.5 mM HEPES-KOH pH 8.0, 75 mM KOAc, 1 mM Mg(OAc)2, 0.025 mM EDTA, 25 C; EMSA: polyadenylation buffer + 5% glycerol, 10 nM RNA, 30 C 1.5 h, native PAGE pH 6.4 at 4 C; conditions: protein: recombinant; tags: C-terminal 6xHis; single strand
T2 sequence: T1 sequence

Nab2-6xHis [5] = biological target: T2, Nab2-6xHis; assay: EMSA; Hill coefficient 2.7; multiple shifted bands; switchSENSE: 12.5 mM HEPES-KOH pH 8.0, 75 mM KOAc, 1 mM Mg(OAc)2, 0.025 mM EDTA, 25 C; EMSA: polyadenylation buffer + 5% glycerol, 10 nM RNA, 30 C 1.5 h, native PAGE pH 6.4 at 4 C; conditions: protein: recombinant; tags: C-terminal 6xHis; label: Atto680; single strand

With Nab2-FKBP12 the modal poly(A) tail length of the substrate RNA that escaped early inhibition, 1 µM Nab2 with rapamycin (∼42 As in a reaction without rapamycin) [1] was 36 As.

B1: rA60 nanolever (mixed)
DNA 1: ATTGTGCTCGTCAGTAGTGTAAAAAAAAAAAAAAAAAAAAAAAAAAAAAAAAAAAAAAAAAAAAAAAAAAAAAAAAAAAA
DNA 2: ACACTACTGACGAGCACAATATCAGCGTTCGATGCTTCCGACTAATCAGCCATATCAGCTTACGACTA
DNA 3: TAGTCGTAAGCTGATATGGCTGATTAGTCGGAAGCATCGAACGCTGAT
modifications: 3' 60 nt RNA on DNA handle
For B1, the binding signal (SII-Nab2 [2]) was ~5 fold higher affinity than rA30.

B2: rA30 nanolever (mixed)
DNA 1: ATTGTGCTCGTCAGTAGTGTAAAAAAAAAAAAAAAAAAAAAAAAAAAAAA
DNA 2: B1 DNA 2
DNA 3: B1 DNA 3
modifications: 3' 30 nt RNA on DNA handle
In the case of B2, the binding signal (SII-Nab2 [3]) is reported as ~0.2 affinity relative to rA60.

AAAAAAAAAAAAAAAAAAAAAAAAAAAAAA (ssRNA, phosphate) [A30 (R002)]: binds (Nab2-6xHis [4]).

B3: Atto680-A59 (R003) (ssRNA)
RNA: AAAAAAAAAAAAAAAAAAAAAAAAAAAAAAAAAAAAAAAAAAAAAAAAAAAAAAAAAAA
B3: binds (Nab2-6xHis [5]).
